The values below come from patent US20210063414A1, “METHODS FOR PREVENTING AND/OR TREATING BONE LOSS CONDITIONS BY MODULATING IRISIN” (Dana-Farber Cancer Institute, Inc., priority 2018, published 2021).

The assay concerns MLO-Y4 cells. Kind of assay: Integrin-like signaling (pFAK, pZyxin, pAKT, pCREB) in MLO-Y4 cells, immunoblot. It is filed as cell-based. The protocol: Integrin heterodimer binds to its ligand. The interaction results in phosphorylation of FAK and Zyxin, followed by phosphorylation of AKT (at T308) and CREB. PM is plasma membrane. FIG. 2C and FIG. 2D show the immunoblots. MLO-Y4 cells were seeded and incubated until 60% cell density. The cells were incubated with serum free medium (FreeStyle™ 293 medium) for 4 hours and were treated for indicated time with 10 nM norepinephrine or irisin (FIG. 2C) or indicated concentrations of irisin for 10 minutes (FIG. 2D). Cells were lysed to detect the indicated protein level using immunoblot analysis.
Certain materials and methods were used to generate the results described herein. For example, the data shown in FIG. 1A resulted from MLO-Y4 (an osteocyte-like cell line) cells treated with the indicated concentration of irisin and hydrogen peroxide for 4 hours. Cells were stained with Hoechst 33342 (ThermoFisher Scientific, catalog number H3570) and Eth-D1 (ThermoFisher Scientific, catalog number E1169) and analyzed to determine the percentage of cell death using ImageJ. The data shown in FIG. 2D resulted from MLO-Y4 incubated in serum free medium (FreeStyle™ 293 expression medium, ThermoFisher Scientific, catalog number 12338018) for 4 hours followed by treatment of indicated concentrations of irisin for 10 minutes. Cells were lysed to detect the indicated protein level using immunoblot analysis (Cell Signaling Technology, catalog numbers 3283S, 3285S, 8467S, 3553S, 9198S, and 9104S; Abcam, catalog number ab49900-100ul). The data shown in FIG. 3 resulted from 3T3-F442A cells incubated in serum free medium for 4 hours followed by treatment of indicated concentrations of irisin for 10 minutes. Cells were lysed by RIPA buffer to detect the indicated protein level using immunoblot analysis. The data shown in FIG. 4 were generated from 100 nM flag-tagged irisin (Enzo life sciences, catalog number ADI-908-307-3010) incubated with 5 nM of the indicated 6 his-tag integrins (R & D Systems Inc., catalog numbers 7064-AB-025, 5668-A4-050, 5438-A9-050, 6357-AB-050, and 6579-AV-025) in the presence of RGDS peptide (R & D Systems Inc., catalog number 3498/10) or its control peptide (Enzo Life Sciences, catalog Number BML-P701-0005) followed by immunoprecipitation using 6 his-tag beads (ThermoFisher Scientific, catalog number R901-01). Co-precipitated irisin was analyzed by immunoblot analysis against flag tag (Sigma Aldrich, catalog number A8592). The data shown in FIGS. 5A and 5B were generated from MLO-Y4 cells treated and analyzed as in the experiments used to generate the data shown in FIG. 2D, except that pre-treatment of 100 nM RGDS (FIG. 5A) or echistatin (R & D Systems Inc., catalog number 3202/100U) (FIG. 5B) for 10 minutes was performed before irisin treatment. The data shown in FIGS. 6A and 6B were generated from MLO-Y4 cells incubated in serum free medium for 3 hours followed by treatment of indicated time of 10 nM irisin for 16 hours. RNAs were extracted from the cells and the sclerostin mRNA level was analyzed by qPCR (FIG. 6A) or treated and analyzed as in (FIG. 6A), except that pre-treatment of 10 μM RGDS, RGDyK (Selleck, catalog number S7844), or echistatin was performed for 10 minutes before irisin treatment. The data shown in FIGS. 7A and 7B were generated from 8 week-old mice injected with the indicated dose of irisin for 6 days. Tibias were collected and treated with collagenase to obtain mRNA from the osteocyte-enriched bones. Sclerostin mRNA level was analyzed by qPCR (FIG. 7A). Serum was collected to analyze the sclerostin protein level using ELISA kit (R&D Systems Inc., catalog number MSST00) (FIG. 7B). The data shown in FIG. 8 were generated from 8 week-old mice injected with the indicated dose of irisin for 6 days. Epididymal fats were collected, RNAs were extracted from the tissues, and mRNA levels of the indicated genes were analyzed by qPCR. […]

B1: irisin: secreted cleaved form of FNDC5; recombinant human/mouse irisin with C-terminal his tag produced in HEK293 cells (protein)
chain: DSPSAPVNVTVRHLKANSAVVSWDVLEDEVVIGFAISQQKKDVRMLRFIQEVNTTTRSCALWDLEEDTEYIVHVQAISIQGQSPASEPVLFKTPREAEKMASKNKDEVTMKE
modifications: left off: small tags and cut ends
notes: secreted cleaved form of FNDC5; recombinant human/mouse irisin with C-terminal his tag produced in HEK293 cells
As for B1, where the note is “MLO-Y4, 10 nM irisin”, the “phosphorylation of AKT on threonine 308” value was “phosphorylated on threonine 308”, the “phosphorylation of AKT serine at amino acid 473” value is reported as “not induced”, the “time after which CREB was phosphorylated” value was 5 min and the “time to phosphorylation of FAK” value worked out at 1 min. Further, the “phosphorylation of Zyxin” value (MLO-Y4, irisin dose response, 10 minutes) was “phosphorylated potently”. Also, the “irisin dose as low as which induced phosphorylation of FAK” value (MLO-Y4, serum free medium 4 hours, irisin 10 minutes) turned out to be 10 pM.
